Source: patent publication US20240117018A1

What was measured:
[1] = target: HIV-1 93TH057 gp120 coree (HIV-1); test: EBI PISA on PDB 5te6 (structure not solved in this filing)
[2] = target: HIV-1 Env pseudovirus C3347.c11 (HIV-1); test: cell-based or functional assay
[3] = target: HIV-1 Env pseudovirus X2131_C1_B5 (HIV-1); test: cell-based or functional assay
[4] = target: HIV-1 Env pseudovirus P1981_C5_3 (HIV-1); test: cell-based or functional assay
[5] = target: HIV-1 Env pseudovirus BJOX010000.06.2 (HIV-1); test: cell-based or functional assay
[6] = target: HIV-1 Env pseudovirus R2184.c04 (HIV-1); test: cell-based or functional assay
[7] = target: HIV-1 Env pseudovirus BJOX025000.01.1 (HIV-1); test: cell-based or functional assay
[8] = target: HIV-1 Env pseudovirus C4118.c09 (HIV-1); test: cell-based or functional assay
[9] = target: HIV-1 Env pseudovirus 89-F1_2_25 (HIV-1); test: cell-based or functional assay
[10] = target: HIV-1 Env pseudovirus 3817.v2.c59 (HIV-1); test: cell-based or functional assay
[11] = target: HIV-1 Env pseudovirus 231965.c01 (HIV-1); test: cell-based or functional assay
[12] = target: HIV-1 Env pseudovirus T255-34 (HIV-1); test: cell-based or functional assay
[13] = target: HIV-1 Env pseudovirus 231966.c02 (HIV-1); test: cell-based or functional assay
[14] = target: HIV-1 Env pseudovirus X1632_S2_B10 (HIV-1); test: cell-based or functional assay
[15] = target: HIV-1 Env pseudovirus X1193_c1 (HIV-1); test: cell-based or functional assay
[16] = target: HIV-1 Env pseudovirus C1080.c03 (HIV-1); test: cell-based or functional assay
[17] = target: HIV-1 Env pseudovirus 6540.v4.c1 (HIV-1); test: cell-based or functional assay
[18] = target: HIV-1 Env pseudovirus 211-9 (HIV-1); test: cell-based or functional assay
[19] = target: HIV-1 Env pseudovirus R3265.c06 (HIV-1); test: cell-based or functional assay
[20] = target: HIV-1 Env pseudovirus 235-47 (HIV-1); test: cell-based or functional assay
[21] = target: HIV-1 Env pseudovirus 6952.v1.c20 (HIV-1); test: cell-based or functional assay
[22] = target: HIV-1 Env pseudovirus T251-18 (HIV-1); test: cell-based or functional assay
[23] = target: HIV-1 Env pseudovirus T250-4 (HIV-1); test: cell-based or functional assay
[24] = target: HIV-1 Env pseudovirus 6041.v3.c23 (HIV-1); test: cell-based or functional assay
[25] = target: HIV-1 Env pseudovirus P0402_c2_11 (HIV-1); test: cell-based or functional assay
[26] = target: HIV-1 Env pseudovirus C2101.c01 (HIV-1); test: cell-based or functional assay
[27] = target: HIV-1 Env pseudovirus 620345.c01 (HIV-1); test: cell-based or functional assay
[28] = target: HIV-1 Env pseudovirus BJOX015000.11.5 (HIV-1); test: cell-based or functional assay
[29] = target: HIV-1 Env pseudovirus 6480.v4.c25 (HIV-1); test: cell-based or functional assay
[30] = target: HIV-1 Env pseudovirus 3301.v1.c24 (HIV-1); test: cell-based or functional assay
[31] = target: HIV-1 Env pseudovirus BJOX009000.02.4 (HIV-1); test: cell-based or functional assay
[32] = target: HIV-1 Env pseudovirus 3103.v3.c10 (HIV-1); test: cell-based or functional assay
[33] = target: HIV-1 Env pseudovirus R1166.c01 (HIV-1); test: cell-based or functional assay
[34] = target: HIV-1 Env pseudovirus CNE5 (HIV-1); test: cell-based or functional assay
[35] = target: HIV-1 Env pseudovirus 3016.v5.c45 (HIV-1); test: cell-based or functional assay
[36] = target: HIV-1 Env pseudovirus BJOX028000.10.3 (HIV-1); test: cell-based or functional assay
[37] = target: HIV-1 Env pseudovirus T278-50 (HIV-1); test: cell-based or functional assay
[38] = target: HIV-1 Env pseudovirus 6811.v7.c18 (HIV-1); test: cell-based or functional assay
[39] = target: HIV-1 Env pseudovirus X1254_c3 (HIV-1); test: cell-based or functional assay
[40] = target: HIV-1 Env pseudovirus 0815.v3.c3 (HIV-1); test: cell-based or functional assay
[41] = target: HIV-1 Env pseudovirus X2088_c9 (HIV-1); test: cell-based or functional assay
[42] = target: HIV-1 Env pseudovirus 6545.v4.c1 (HIV-1); test: cell-based or functional assay
[43] = target: HIV-1 Env pseudovirus A07412M1.vrc12 (HIV-1); test: cell-based or functional assay
[44] = target: HIV-1 93TH057 gp120 coree (HIV-1); test: EBI PISA on PDB 3ngb (structure not solved in this filing)
[45] = target: monomeric HIV-1 Ba-L gp120 (HIV-1 Ba-L); test: retention on the gp120 affinity column

## N6 Fab
[1]
  buried surface area, CDR H3: 123 Å^2

## 45-46 (antibody)
[2]
  IC50 (Titer in TZM.bl cells): 0.03 µg/mL
  IC80 (Titer in TZM.bl cells): 0.18 µg/mL
[3]
  IC50 (Titer in TZM.bl cells): 0.2 µg/mL
  IC80 (Titer in TZM.bl cells): 0.9 µg/mL
[4]
  IC50 (Titer in TZM.bl cells): 0.05 µg/mL
  IC80 (Titer in TZM.bl cells): 0.22 µg/mL
[5]
  IC50 (Titer in TZM.bl cells): 0.87 µg/mL
  IC80 (Titer in TZM.bl cells): 6.37 µg/mL
[6]
  IC50 (Titer in TZM.bl cells): 0.03 µg/mL
  IC80 (Titer in TZM.bl cells): 0.12 µg/mL
[7]
  IC50 (Titer in TZM.bl cells): 0.18 µg/mL
  IC80 (Titer in TZM.bl cells): 10 µg/mL
[8]
  IC50 (Titer in TZM.bl cells): 0.14 µg/mL
  IC80 (Titer in TZM.bl cells): 0.91 µg/mL
[9]
  IC50 (Titer in TZM.bl cells): > 50 µg/mL
  IC80 (Titer in TZM.bl cells): > 50 µg/mL
[10]
  IC50 (Titer in TZM.bl cells): > 50 µg/mL
  IC80 (Titer in TZM.bl cells): > 50 µg/mL
[11]
  IC50 (Titer in TZM.bl cells): 0.1 µg/mL
  IC80 (Titer in TZM.bl cells): 0.1 µg/mL
[12]
  IC50 (Titer in TZM.bl cells): 0.23 µg/mL
  IC80 (Titer in TZM.bl cells): 2.38 µg/mL
[13]
  IC50 (Titer in TZM.bl cells): 1.11 µg/mL
  IC80 (Titer in TZM.bl cells): 11.4 µg/mL
[14]
  IC50 (Titer in TZM.bl cells): 0.07 µg/mL
  IC80 (Titer in TZM.bl cells): > 50 µg/mL
[15]
  IC50 (Titer in TZM.bl cells): 0.04 µg/mL
  IC80 (Titer in TZM.bl cells): 0.16 µg/mL
[16]
  IC50 (Titer in TZM.bl cells): 1.79 µg/mL
  IC80 (Titer in TZM.bl cells): 18 µg/mL
[17]
  IC50 (Titer in TZM.bl cells): > 50 µg/mL
  IC80 (Titer in TZM.bl cells): > 50 µg/mL
[18]
  IC50 (Titer in TZM.bl cells): > 50 µg/mL
  IC80 (Titer in TZM.bl cells): > 50 µg/mL
[19]
  IC50 (Titer in TZM.bl cells): 0.04 µg/mL
  IC80 (Titer in TZM.bl cells): 0.44 µg/mL
[20]
  IC50 (Titer in TZM.bl cells): 0.3 µg/mL
  IC80 (Titer in TZM.bl cells): 1.49 µg/mL
[21]
  IC50 (Titer in TZM.bl cells): 0.02 µg/mL
  IC80 (Titer in TZM.bl cells): 0.07 µg/mL
[22]
  IC50 (Titer in TZM.bl cells): 5.26 µg/mL
  IC80 (Titer in TZM.bl cells): 5.26 µg/mL
[23]
  IC50 (Titer in TZM.bl cells): > 30 µg/mL
  IC80 (Titer in TZM.bl cells): > 30 µg/mL
[24]
  IC50 (Titer in TZM.bl cells): 0.01 µg/mL
  IC80 (Titer in TZM.bl cells): 0.04 µg/mL
[25]
  IC50 (Titer in TZM.bl cells): 0.06 µg/mL
  IC80 (Titer in TZM.bl cells): 0.26 µg/mL
[26]
  IC50 (Titer in TZM.bl cells): 12.8 µg/mL
  IC80 (Titer in TZM.bl cells): > 50 µg/mL
[27]
  IC50 (Titer in TZM.bl cells): > 30 µg/mL
  IC80 (Titer in TZM.bl cells): > 30 µg/mL
[28]
  IC50 (Titer in TZM.bl cells): 0.06 µg/mL
  IC80 (Titer in TZM.bl cells): 0.38 µg/mL
[29]
  IC50 (Titer in TZM.bl cells): 0.02 µg/mL
  IC80 (Titer in TZM.bl cells): 0.08 µg/mL
[30]
  IC50 (Titer in TZM.bl cells): 0.01 µg/mL
  IC80 (Titer in TZM.bl cells): 0.03 µg/mL
[31]
  IC50 (Titer in TZM.bl cells): 0.26 µg/mL
  IC80 (Titer in TZM.bl cells): 1.16 µg/mL
[32]
  IC50 (Titer in TZM.bl cells): 1.66 µg/mL
  IC80 (Titer in TZM.bl cells): 6.57 µg/mL
[33]
  IC50 (Titer in TZM.bl cells): 1.68 µg/mL
  IC80 (Titer in TZM.bl cells): 1.68 µg/mL
[34]
  IC50 (Titer in TZM.bl cells): 0.09 µg/mL
  IC80 (Titer in TZM.bl cells): 0.41 µg/mL
[35]
  IC50 (Titer in TZM.bl cells): > 30 µg/mL
  IC80 (Titer in TZM.bl cells): > 30 µg/mL
[36]
  IC50 (Titer in TZM.bl cells): 0.07 µg/mL
  IC80 (Titer in TZM.bl cells): > 50 µg/mL
[37]
  IC50 (Titer in TZM.bl cells): > 30 µg/mL
  IC80 (Titer in TZM.bl cells): > 30 µg/mL
[38]
  IC50 (Titer in TZM.bl cells): 0.03 µg/mL
  IC80 (Titer in TZM.bl cells): 0.13 µg/mL
[39]
  IC50 (Titer in TZM.bl cells): 0.08 µg/mL
  IC80 (Titer in TZM.bl cells): 0.08 µg/mL
[40]
  IC50 (Titer in TZM.bl cells): 0.01 µg/mL
  IC80 (Titer in TZM.bl cells): 0.03 µg/mL
[41]
  IC50 (Titer in TZM.bl cells): > 50 µg/mL
  IC80 (Titer in TZM.bl cells): > 50 µg/mL
[42]
  IC50 (Titer in TZM.bl cells): > 50 µg/mL
  IC80 (Titer in TZM.bl cells): > 50 µg/mL
[43]
  IC50 (Titer in TZM.bl cells): 0.03 µg/mL
  IC80 (Titer in TZM.bl cells): 0.13 µg/mL

## VRC01 Fab
[44]
  buried surface area, CDR H3: 160 Å^2

## Synagis (antibody)
[45]
  recovery on the gp120 affinity column: < 1%
